Results from patent US10513545B2, “Fusion polypeptide in which anti-inflammatory polypeptide and ferritin monomer fragment are bound and pharmaceutical composition for preventing and treating inflammatory diseases, containing same as active ingredient” (KYUNGPOOK NATIONAL UNIVERSITY INDUSTRY-ACADEMIC COOPERATION …, priority 2015, dated 2019).

Legend:
CLP-induced sepsis = assay: H&E staining and histopathological examination of lung in CLP-induced sepsis; assay type: in vivo, mouse; details: for interstitial edema, infiltration of inflammatory cells and damage of pulmonary architecture: 200 nM intravenously 6 h after CLP, lungs 96 h after CLP, FIG. 15; for histopathologic score of pulmonary injury: in comparison with co-administration of PC-Gla and TRAP, FIG. 16
Description: To induce inflammation, male mice were anesthetized with 2% isoflurane (JW Pharmaceutical, Republic of Korea) in oxygen delivered via a small rodent gas anesthesia machine (RC2, Vetequip, Pleasanton, Calif.), first in a breathing chamber and then via a facemask. They were allowed to breathe spontaneously during this procedure. The CLP-induced inflammation model was prepared as previously described. In brief, a 2-cm midline incision was made to expose the cecum and adjoining intestine. The cecum was then tightly ligated with a 3.0-silk suture at 5.0 mm from the cecal tip and punctured once using a 22-gauge needle for the induction of high grade inflammation. It was then squeezed gently to extrude a small amount of feces from the perforation site and returned to the peritoneal cavity. The laparotomy site was then sutured with 4.0-silk. In sham control animals, the cecum was exposed but not ligated or punctured and then returned to the abdominal cavity. This protocol was approved by the Animal Care Committee at Kyungpook National University prior to the conduct of the study (IRP No, KNU 2012-13).
Male C57BL/6 mice underwent CLP and were administered PC-Gla with TRAP, TFG, or TFMG (200 nM) intravenously at 6 h after CLP (n=5). Mice were euthanized 96 h after CLP. To analyze the phenotypic change of the lungs in mice, lung samples were removed from each mouse, washed tree times in PBS (pH 7.4) to remove remaining blood, fixed in 4% formaldehyde solution (Junsei, Tokyo, Japan) in PBS, pH 7.4 for 20 h at 4° C. After fixation, the samples were dehydrated through ethanol series, embedded in paraffin, sectioned into 4-μm sections, and placed on a slide. The slides were de-paraffinized in a 60° C. oven, rehydrated, and stained with hematoxylin (Sigma). To remove over-staining, the slides were quick dipped three times in 0.3% acid alcohol, and counterstained with eosin (Sigma). They are then washed in ethanol series and xylene, and then coverslipped. Light microscopic analysis of lung specimens was performed by blinded observation to evaluate pulmonary architecture, tissue edema, and infiltration of the inflammatory cells. The results were classified into four grades where Grade 1 represented normal histopathology; Grade 2 represented minimal neutrophil leukocyte infiltration; Grade 3 represented moderate neutrophil leukocyte infiltration, perivascular edema formation, and partial destruction of pulmonary architecture; and Grade 4 included dense neutrophil leukocyte infiltration, abscess formation, and complete destruction of pulmonary architecture.

soluble EPCR (sEPCR) = target: T1, soluble EPCR (sEPCR) (Homo sapiens, UniProt Q9UNN8); assay: solid-phase ELISA for binding affinity to soluble EPCR; details: FIG. 9, read-out: Kd(app) for the interaction with sEPCR
T1 construct: 96-well flat microtiter plates were coated with soluble EPCR
T1 sequence (Q9UNN8 18-210 limits assumed): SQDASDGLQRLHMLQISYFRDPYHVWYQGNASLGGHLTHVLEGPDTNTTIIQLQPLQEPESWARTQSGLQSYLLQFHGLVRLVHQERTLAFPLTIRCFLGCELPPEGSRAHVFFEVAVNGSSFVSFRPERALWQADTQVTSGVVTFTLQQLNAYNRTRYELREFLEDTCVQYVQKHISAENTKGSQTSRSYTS
Description: 9. Enzyme-Linked Immunosorbent Assays (ELISA) for Evaluating EPCR (Endothelial Protein C Receptor) Binding Affinity
To evaluate the interaction of the wild-type PC, PC-Gla peptides, TFG, and TFMG with EPCR, 96-well flat microtiter plates were coated with soluble EPCR in 20 mM carbonate-bicarbonate buffer (pH 9.6) containing 0.02% sodium azide, overnight at 4° C. After the plates were washed three times in TBS buffer (0.1 M NaCl, 0.02 M Tris-HCl, pH 7.4) containing 0.05% Tween 20, the plates were incubated with wild-type PC, PC-Gla peptides, TFG, and TFMG (7-1000 nM) diluted in the buffer for 1 h. After the plates were rinsed again, they were incubated with a goat anti-protein C polyclonal antibody (1:1000) for 1 h. Then, the plates were washed and incubated with rabbit anti-goat IgG (KPL, MD, 1:1000) for 1 h. After washing, the plates were incubated with 2,2′-azino-di(3-ethylbenzthiazoline-6-sulfonate) (ABTS; KPL, Gaithersburg, Md.). Colorimetric analysis was performed by measuring absorbance values at 405 nm.

MMP-2 = target: T2, MMP-2 (Homo sapiens, UniProt P08253); assay: cleavage of nanocaged TFMG by activated MMP-2; assay type: biochemical; details: p-aminophenylmercuric acetate-activated MMP-2, FIG. 6-8
T2 sequence (P08253 110-660): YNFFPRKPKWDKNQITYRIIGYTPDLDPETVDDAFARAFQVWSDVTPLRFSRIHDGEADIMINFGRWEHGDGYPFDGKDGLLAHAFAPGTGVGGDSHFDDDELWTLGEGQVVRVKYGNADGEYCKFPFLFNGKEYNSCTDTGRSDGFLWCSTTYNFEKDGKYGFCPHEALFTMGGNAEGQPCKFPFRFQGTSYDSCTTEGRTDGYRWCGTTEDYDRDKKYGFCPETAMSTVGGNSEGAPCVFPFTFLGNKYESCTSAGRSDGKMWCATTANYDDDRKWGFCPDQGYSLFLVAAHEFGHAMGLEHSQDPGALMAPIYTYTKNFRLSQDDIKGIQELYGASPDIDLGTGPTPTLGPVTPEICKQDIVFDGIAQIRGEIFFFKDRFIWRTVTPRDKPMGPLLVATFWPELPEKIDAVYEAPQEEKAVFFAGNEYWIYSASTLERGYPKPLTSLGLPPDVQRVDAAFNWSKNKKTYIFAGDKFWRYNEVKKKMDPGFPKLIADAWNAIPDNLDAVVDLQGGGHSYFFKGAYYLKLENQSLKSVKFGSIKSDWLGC
Description: To evaluate whether TFMG could be selectively cleaved by MMP2, TFMG was incubated with APMA-mediated activated MMP-2 in PBS at 37° C. for 3 h. The cleaved fragments of TFMG were detected by MALDI-ToF.

B1: TFG: fusion polypeptide: TRAP at N-terminus and PC-Gla at C-terminus of short ferritin monomer fragment, forms nanocage (apparently SEQ ID NO: 14) (protein)
chain: MGGTTFLLRNASGHMSSQIRQNYSTDVEAAVNSLVNLYLQASYTYLSLGFYFDRDDVALEGVSHFFRELAEEKREGYERLLKMQNQRGGRIFLQDIKKPAEDEWGKTPDAMKAAMALEKKLNQALLDLHALGSARTDPHLCDFLETHFLDEEVKLIKKMGDHLTNLHRLGGGSEFVDGGGSGTSANSFLEELRHSSLERECIEEICDFEEAKEIFQNVDDTLAFWSKHVLEHHHHHH
modifications: Fusion polypeptide (1)
interstitial edema, infiltration of inflammatory cells and damage of pulmonary architecture (CLP-induced sepsis): significantly alleviated | histopathologic score of pulmonary injury (CLP-induced sepsis): significantly superior effect

B2: TFMG: as TFG with an MMP-2 cleavable linker (GPLGLAG) between ferritin fragment C-terminus and PC-Gla (apparently SEQ ID NO: 15) (protein)
chain: MGGTTFLLRNASGHMSSQIRQNYSTDVEAAVNSLVNLYLQASYTYLSLGFYFDRDDVALEGVSHFFRELAEEKREGYERLLKMQNQRGGRIFLQDIKKPAEDEWGKTPDAMKAAMALEKKLNQALLDLHALGSARTDPHLCDFLETHFLDEEVKLIKKMGDHLTNLHRLGGGSEFVDGGGSGTSGPLGLAGANSFLEELRHSSLERECIEEICDFEEAKEIFQNVDDTLAFWSKHVLEHHHHHH
modifications: Fusion polypeptide (2)
Kd (soluble EPCR (sEPCR)): 307 nM | release of PC-Gla by linker cleavage with MMP-2 (MMP-2): continuously released PC-Gla | interstitial edema, infiltration of inflammatory cells and damage of pulmonary architecture (CLP-induced sepsis): significantly alleviated | histopathologic score of pulmonary injury (CLP-induced sepsis): significantly superior effect
